First the molecules themselves.
T1: recombinant cynomolgus monkey PD-1 expressed with a C-terminal myc-myc-hexahistidine tag (cynomolgus monkey (Macaca fascicularis))
T1 construct: monomeric; also called MfPD-1-MMH
T1 chain: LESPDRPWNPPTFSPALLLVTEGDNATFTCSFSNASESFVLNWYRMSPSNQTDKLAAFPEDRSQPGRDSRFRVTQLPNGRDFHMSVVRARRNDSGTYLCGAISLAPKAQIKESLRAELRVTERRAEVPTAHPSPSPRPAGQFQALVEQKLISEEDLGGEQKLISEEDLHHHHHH

B1: H4xH8992P (antibody, V domains shown)
VH: EVQLVESGGGLVQPGRSLRLSCVASGFALHDYAMHWVRQVPGKGLEWVSSISWNSGVIGYADSLKGRFTISRDNAKNSLYLQMNSLRAEDTALYYCAKGSGSYYVSWFDPWGQGTLVTVSS
VL: not shown
notes: Human IgG4 Fc with 2 or more amino acid changes (H4xH)
B2: H4xH9145P2 (antibody, human IgG4, V domains shown)
VH: QVQLVESGGGVVQPGRSLRLSCSASGFTFSAYAMHWVRQAPGKGLEWVAAISYGGSDKYYADSVKGRFTISRDNSKNTLYLQMNSLRTDDTAVYYCAKSAHWNFFFDYWGQGTLVTVSS
VL: not shown
notes: H4xH: modified human IgG4 Fc
B3: H4xH9037P (antibody, human IgG4, V domains shown)
VH: EVQLVESGGGLVQPGGSLRLSCAASGFTFDDYAMHWVRQAPGKGLEWVSGIGWSSGSIGYADSVKGRFTISRDNAKNSLYLQMDSLRPEDSALYYCAKAYTFMITLYFDYWGQGTLVTVSS
VL: not shown
notes: H4xH: modified human IgG4 Fc; also called H4xH9037P2
B4: H4xH9135P2 (antibody, human IgG4, V domains shown)
VH: EVQLVESGGSVVRPGGSLRLSCVVSGFTFEDYGLSWVRQIPGKGLEWVSGISWTGGNTGYADSVKGRFTISRDNAKNSLYLQMNSLRAEDTALYHCTRDRQWLMQWYFDYWGQGTLVTVSS
VL: not shown
notes: H4xH: modified human IgG4 Fc
B5: H2aM7794N (antibody, V domains shown)
VH: QLQLQESGPDLVKPSDTLSLTCTVSDDSISSTTYYWAWIRQPPGKGLEWIGSMSYNGNNYYNPSLKSRVAISAGTSQKQFSLKLTSVTAADTAVYHCARHLGYNGNWYPFDFWGQGILVTVSS
VL: not shown
notes: Human variable domains, mouse IgG2a Fc; also called H2M7794N
B6: H4H7795N2 (antibody, human IgG4 S228P, kappa, V domains shown)
VH: EVQVVESGGGLVEPGRSLRLSCKASGFTFDDYAMHWVRQTPGKALEWVSGISWSGNNIGYADSVKGRFTISKDDAKNSLYLQMNSLRPEDTALYYCTKDISITGTLDAFDVWGQGTMVTVSS
VL: DIQMTQSPISVSASVGDRVTITCRASQGISNWLAWYQQKPGIAPKLLIYSASSLQSGVPSRFRGSGSGTDFTLTIGSLQPEDFATYYCQQAHSFPLTFGGGTKVEIKR
B7: H2aM7795N (antibody, mouse IgG2a, V domains shown)
VH: EVQVVESGGGLVEPGRSLRLSCKASGFTFDDYAMHWVRQTPGKALEWVSGINWSGNNIGYADSVKGRFTISKDDAKNSLYLQMNSLRPEDTALYYCTKDISITGTLDAFDVWGQGTMVTVSS
VL: DIQMTQSPISVSASVGDRVTITCRASQGISNWLAWYQQKPGIAPKLLIYSASSLQSGVPSRFRGSGSGTDFTLTIGSLQPEDFATYYCQQAHSFPLTFGGGTKVEIK
notes: Human variable domains, mouse IgG2a Fc; also called H2M7795N
B8: H4xH9128P2 (antibody, human IgG4, V domains shown)
VH: QVQLQESGPGLVKPSETLSLTCTVSGGSISSYHWNWIRQSPGKGLEWIGYIYYIGSTDYNPSLESRVTISVDTSKNQFSLKLSSVTAADTAVYYCARVPVGATGASDVWGQGTMVTVSS
VL: not shown
notes: H4xH: modified human IgG4 Fc
B9: H2aM7780N (antibody, mouse IgG2a, V domains shown)
VH: QVQLVESGGGVVQSGRSLRLSCAASGFTFSSYGMHWVRQAPGKGLEWVAVIWYDGSNIYYSDSVKGRFTISRANSKNTLYLQMNSLRAEDTAVYYCARPGHWNYFFEYWGQGTLVTVSS
VL: DIQMTQSPSSLSASVGDRVTITCRASQSINNYLNWYQQKPGKAPKLLIYTASSLQSGVPSRFSGSGSGTDFTLTISSLQPEDFATYYCQQSYSTPPLTFGQGTQLEIK
notes: also called H2M7780N
B10: H1M7789N (antibody, mouse IgG1, V domains shown)
VH: EVQLLESGGGLVQPGGSLRLSCSASGFTFSSYTMNWVRQAPGKGLEWVSGISDTGGNTYYTDSVKGRFTVSRDNSKNTLSLQMNSLRAEDTAVYYCAKDQGGSYPYYFHYWGQGSLVTVSS
VL: DIQMTQSPSSLSASVGDRVTITCRASQSISSYLIWYQQKPGTAPKFLIYAASSLQSGVPSRFSGCGSGTDFTLTISSLQPEDFATYYCQQSYSTPPITFGQGTRLEIK
notes: Human variable domains, mouse IgG1 Fc (H1M prefix)
B11: H4xH9034P (antibody, V domains shown)
VH: EVQLVESGGGVVRPGGSLRLSCTASGFTFDDYGMSWVRQAPGKGLEWISGIGWTGGRSSYADSVRGRFTISRDNAKNSLYLQMNSLGAEDTALYYCARDRQWLVQWYFDYWGQGTLVTVSS
VL: not shown
notes: Human IgG4 Fc with 2 or more amino acid changes as in US20100331527 (H4xH prefix); also called H4xH9034P2
B12: H2aM7791N (antibody, mouse IgG2a, V domains shown)
VH: QMQLQQWGAGLLKPSETLSLTCVVYGGSLNGYYWSWIRQSPGKGLEWIGEIDHSGSTNYNPSLKNRVTMSVDTSKIQFSLKLTSVTVADTAVYYCAREGLLPFDYWGQGTLVTVSS
VL: EIVLTQSPGTLSLSPGERVTLSCRASQSVYSNYLAWYQQNPGQAPRLLIYAASNRATGIPDRFSGSGSGTDFTLTISRLEPEDFAVYYCHQYATSPWTFGQGTKVEIK
notes: Human variable domains, mouse IgG2a Fc; also called H2M7791N
B13: H2aM7788N (antibody, mouse IgG2a, V domains shown)
VH: EVQLVESGGGLVQPGGSLRLSCGASGFTFRNYDMHWVRQITGKGLEWVSAIGSAGDTYYPDSVKGRFTISRENAKNSLYLQMNSLRVGDTAVYYCTRDIHCSSTRCYGMDVWGQGTTVTVSS
VL: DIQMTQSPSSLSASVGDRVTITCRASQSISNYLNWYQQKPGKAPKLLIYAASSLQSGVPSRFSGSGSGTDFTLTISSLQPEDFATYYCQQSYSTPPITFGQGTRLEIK
notes: Human variable domains, mouse IgG2a Fc; also called H2M7788N
B14: H4H9019P (antibody, human IgG4, V domains shown)
VH: EVQLVESGGGVVRPGGSLRLSCAASGFTFDDYGMSWVRQVPGKGLEWVSGISWNDGKTVYAESVKGRFIISRDNAKNSLYLEMNSLRAEDTALYYCARDWQYLIERYFDYWGQGTLVTVSS
VL: not shown
notes: Fully human, human IgG4 Fc (H4H prefix)
B15: H4xH9035P (antibody, human IgG4, V domains shown)
VH: EVQLVESGGRVVRPGGSLRLSCAASGFTFDDYGMSWVRQLPGKGLEWVAGISWNDGKTVYAESVKGRFIISRDNAKNSLHLEMNSLRAEDTALYYCARDWQYLIDRYFDFWGQGTLVTVSS
VL: not shown
notes: H4xH: modified human IgG4 Fc; also called H4xH9035P2
B16: H4xH8992P (antibody, human IgG4, V domains shown)
VH: EVQLVESGGGLVQPGRSLRLSCVASGFALHDYAMHWVRQVPGKGLEWVSSISWNSGVIGYADSLKGRFTISRDNAKNSLYLQMNSLRAEDTALYYCAKGSGSYYVSWFDPWGQGTLVTVSS
VL: not shown
notes: H4xH: modified human IgG4 Fc
B17: H4xH9120P2 (antibody, human IgG4, V domains shown)
VH: QVQLVQSGAEVKRPGASVKVSCKASGYTFTSFYMYWVRQAPGQGLEWMGIINPSDGSTSNAQKFQGRVTMTRDTSTSTVYMELSSLRSEDTAVYYCARRVAGDIFDIWGQGTMVTVSS
VL: not shown
notes: H4xH: modified human IgG4 Fc
B18: H1M7800N (antibody, mouse IgG1, V domains shown)
VH: EVQLVESGGGLVQPGGSLRLSCAASGFTVSNNYMSWVRQAPGKGLEWVSVIYSGGFTYYTDSVKGRFTISRHNSKNTLYLQMNSLRAEDTAVYYCARYYYDTSDYWTFFDYWGQGTLVTVSS
VL: EIVMTQSPATLSVSPGERATLSCRASQSVSSNLAWYQQKPGQAPRLLIYGASTRATGIPARFSGSGSGTEFTLTISSLQSGDFAVYYCQQYNNWPLTFGGGTKVEIN
notes: Human variable domains, mouse IgG1 Fc

This note sets out measurements from patent US20150203579A1 (Regeneron, published 2015).

The Kd is the free concentration of one partner at which half of the binding sites on the other are occupied at equilibrium, for simple one-to-one binding. Usually t½ stands for the time in which the quantity being followed falls by half. The term koff denotes the rate constant with which the complex falls apart. A word on the kon: it is the second-order rate constant of association.

The target in one test is T1, recombinant cynomolgus monkey PD-1 …. The test is described as follows: SPR, mAb captured, 25C. Background: SPR reads the build-up and loss of mass on a sensor chip optically.
With B1, the Kd amounted to 200 nM and the t½ was 0.3 min.

For a further test, the target named is T2, human PD-1 dimer (human PD-1-mFc or human PD-1-hFc) (human, UniProt Q15116 25-170).
T2 construct: also called hPD-1-mFc; hPD1-hFc
T2 sequence (Q15116 25-170 C93S): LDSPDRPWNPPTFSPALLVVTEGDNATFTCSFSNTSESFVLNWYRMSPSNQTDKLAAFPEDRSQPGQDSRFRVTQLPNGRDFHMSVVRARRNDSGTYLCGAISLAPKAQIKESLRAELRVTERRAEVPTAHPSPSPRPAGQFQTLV
The test is described as follows: SPR, mAb captured, 37C.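 Note: Real-time Biacore biosensor, PD-1 dimer flowed over anti-PD-1 antibody surface, rate constants fitted to a 1:1 model, KD derived as kd/ka and t½ as ln2/(60·kd).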
Consider B1, for which the affinity, expressed as Kd, was 2.91 nM and the t½ is 11 min.

A further test deals with T3, recombinant human PD-1 expressed with a C-terminal myc-myc-hexahistidine tag (human).
T3 construct: also called hPD-1-MMH; human PD-1-MMH
The test is described as follows: SPR (Biacore), mAb captured, hPD-1-MMH injected, 25 C.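 Note: rate constants obtained by fitting sensorgrams to a 1:1 binding model, KD derived as kd/ka and half-life as ln2/(60·kd) in minutes.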
As for B2, the equilibrium dissociation constant (Kd) was 38.5 nM, the koff was found to be 0.00134 s⁻¹, the kon stood at 34700 M⁻¹ s⁻¹ and the t½ was found to be 8.6 min.

Consider B3, for which the Kd worked out at 10.9 nM, the off-rate constant (koff) came out at 0.000795 s⁻¹, the kon worked out at 73200 M⁻¹ s⁻¹ and the t½ turned out to be 15 min.

For the molecule B4, the dissociation constant (Kd) came to 10.2 nM, the koff worked out at 0.0012 s⁻¹, the on-rate (kon) amounted to 117000 M⁻¹ s⁻¹ and the t½ worked out at 10 min.

For the molecule B5, the dissociation constant (Kd) worked out at 38 nM, the koff was determined as 0.00212 s⁻¹, the kon is 55000 M⁻¹ s⁻¹ and the t½ came to 5.4 min.

Take B6: the Kd was 23.3 nM, the off-rate constant (koff) came out at 0.00148 s⁻¹, the kon came out at 63500 M⁻¹ s⁻¹ and the t½ is 8 min.

Take B7: the Kd stood at 23.5 nM, the koff was 0.00115 s⁻¹, the kon was determined as 49100 M⁻¹ s⁻¹ and the t½ is 10 min.

Regarding B8, the Kd is 14.5 nM, the off-rate (koff) was found to be 0.000719 s⁻¹, the on-rate constant (kon) turned out to be 49500 M⁻¹ s⁻¹ and the t½ came out at 16 min.

As to B9, the Kd worked out at 38.5 nM, the dissociation rate constant (koff) was determined as 0.000359 s⁻¹, the on-rate constant (kon) was 9320 M⁻¹ s⁻¹ and the t½ is 32 min.

On to B10, for which the equilibrium dissociation constant (Kd) turned out to be 2.1 nM, the koff stood at 5.31e-05 s⁻¹, the on-rate (kon) came to 25300 M⁻¹ s⁻¹ and the t½ stood at 218 min.

Turning to B11, the Kd worked out at 14.5 nM, the koff was 0.00149 s⁻¹, the association rate constant (kon) turned out to be 102000 M⁻¹ s⁻¹ and the t½ was found to be 7.8 min.

In the case of B12, the Kd came to 23.4 nM, the dissociation rate constant (koff) amounted to 0.000706 s⁻¹, the association rate constant (kon) is 30100 M⁻¹ s⁻¹ and the t½ was found to be 16 min.

As for B13, the Kd came to 19.6 nM, the off-rate (koff) was 0.000388 s⁻¹, the on-rate (kon) turned out to be 19700 M⁻¹ s⁻¹ and the t½ was found to be 30 min.

Consider B14, for which the dissociation constant Kd was 39.4 nM.

As to B15, the equilibrium dissociation constant (Kd) stood at 4.62 nM, the dissociation rate constant (koff) came to 0.000475 s⁻¹, the kon came out at 103000 M⁻¹ s⁻¹ and the t½ was determined as 24 min.

Take B16: the equilibrium dissociation constant (Kd) was 141 nM and the t½ amounted to 0.5 min.

B17: the Kd was 30.1 nM, the koff is 0.000998 s⁻¹, the kon came out at 33200 M⁻¹ s⁻¹ and the t½ stood at 12 min.

As to B18, the equilibrium dissociation constant (Kd) was found to be 161 nM, the koff turned out to be 0.00947 s⁻¹, the kon was found to be 58800 M⁻¹ s⁻¹ and the t½ is 1.2 min.

For another test, the target named is T2, human PD-1 dimer (human PD-1-mFc or …). The test is described as follows: SPR, mAb captured, 25C.
B1: binding was characterised by a dissociation constant (Kd) of 0.68 nM and the t½ turned out to be 72 min.
